Results on nine molecules are retold here after US20240025997A1.

Assay [1] has as its target T1, human ILT4 chimeric reporter receptor (ILT4 extracellular domain fused to PILRbeta transmembrane/intracellular domain) (human), Q8N423.
For assay [2], the target named is T1, human ILT4 chimeric reporter receptor …. This is another data set of the same source.
Assay [3] deals with soluble rhesus ILT2-ECD (rhesus macaque). As to the kind of experiment: SPR (Biacore), antibody captured on Protein A chip, soluble rhesus ILT2-ECD injected (1.6-200 nM), 25 C.
Assay [4] deals with human ILT2 chimeric reporter receptor (ILT2 extracellular domain fused to PILRbeta transmembrane/intracellular domain) (human), Q8NHL6.
Assay [5] concerns the target ILT2 and/or ILT4 on human CD14+ monocytes. Briefly: flow cytometry, fluorescently-labelled antibody on CD14+ monocytes of human PBMC. Background: In flow cytometry, cells or beads pass a laser one at a time.
Assay [6] deals with cynomolgus monkey ILT2 (protein injected in Biacore) (cynomolgus monkey). Briefly: SPR (Biacore), antibody captured on Protein A chip, ILT protein injected, 25 C. On the technique in general: Surface plasmon resonance follows binding to a sensor surface in real time, without labels.
The target in assay [7] is soluble rhesus ILT2-ECD (rhesus macaque). Briefly: SPR (Biacore), antibody captured on Protein A chip, soluble rhesus ILT2-ECD injected, 25 C, low resolution parameters.
The target of assay [8] is ILT2 and/or ILT4 on human CD14+ monocytes. Briefly: flow cytometry, fluorescently labelled antibody on CD14+ monocytes of human PBMC, donor Human 1, geometric MFI.
For assay [9], the target named is cyno ILT2 chimeric reporter receptor (cyno ILT2 extracellular domain fused to PILRbeta transmembrane/intracellular domain) (cynomolgus monkey).
Assay [10] has as its target ILT2 and/or ILT4 on human CD14+ monocytes. As to the kind of experiment: flow cytometry, fluorescently labelled antibody on CD14+ monocytes of human PBMC, donor Human 2, geometric MFI.
Assay [11] has as its target soluble rhesus ILT2-ECD (rhesus macaque). Briefly: SPR (Biacore), antibody captured on Protein A chip, soluble rhesus ILT2-ECD injected, 25 C, low resolution parameters; low resolution parameters.

T1 sequence (Q8N423 other isoform, or with tags, fused parts or gaps mutant limits assumed): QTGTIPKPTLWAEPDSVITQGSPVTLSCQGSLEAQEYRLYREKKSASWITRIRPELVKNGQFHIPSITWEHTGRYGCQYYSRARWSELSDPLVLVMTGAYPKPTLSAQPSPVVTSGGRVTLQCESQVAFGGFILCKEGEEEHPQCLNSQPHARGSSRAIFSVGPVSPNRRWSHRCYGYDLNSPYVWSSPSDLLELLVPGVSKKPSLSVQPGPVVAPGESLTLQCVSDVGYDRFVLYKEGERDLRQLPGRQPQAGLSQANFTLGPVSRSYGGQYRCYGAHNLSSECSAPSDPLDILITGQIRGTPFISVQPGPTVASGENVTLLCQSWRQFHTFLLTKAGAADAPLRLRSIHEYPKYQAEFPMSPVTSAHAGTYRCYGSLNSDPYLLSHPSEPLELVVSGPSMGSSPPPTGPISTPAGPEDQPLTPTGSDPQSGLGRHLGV
Chain of cynomolgus monkey ILT2 (protein injected in Biacore) (cynomolgus monkey) (chain, as listed by the source limits assumed, form in doubt): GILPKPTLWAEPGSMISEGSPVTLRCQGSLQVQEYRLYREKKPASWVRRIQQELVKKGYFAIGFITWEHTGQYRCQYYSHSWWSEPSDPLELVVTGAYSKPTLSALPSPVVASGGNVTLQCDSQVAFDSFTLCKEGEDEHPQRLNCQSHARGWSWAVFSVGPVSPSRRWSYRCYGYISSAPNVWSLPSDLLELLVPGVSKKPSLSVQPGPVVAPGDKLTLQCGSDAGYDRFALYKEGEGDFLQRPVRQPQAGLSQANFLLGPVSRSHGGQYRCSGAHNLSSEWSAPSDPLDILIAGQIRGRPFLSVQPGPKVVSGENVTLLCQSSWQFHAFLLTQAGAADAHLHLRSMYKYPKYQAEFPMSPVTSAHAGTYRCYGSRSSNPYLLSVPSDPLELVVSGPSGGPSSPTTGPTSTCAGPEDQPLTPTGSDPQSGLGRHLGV
Chain of soluble rhesus ILT2-ECD (rhesus macaque) (chain, as listed by the source limits assumed, form in doubt): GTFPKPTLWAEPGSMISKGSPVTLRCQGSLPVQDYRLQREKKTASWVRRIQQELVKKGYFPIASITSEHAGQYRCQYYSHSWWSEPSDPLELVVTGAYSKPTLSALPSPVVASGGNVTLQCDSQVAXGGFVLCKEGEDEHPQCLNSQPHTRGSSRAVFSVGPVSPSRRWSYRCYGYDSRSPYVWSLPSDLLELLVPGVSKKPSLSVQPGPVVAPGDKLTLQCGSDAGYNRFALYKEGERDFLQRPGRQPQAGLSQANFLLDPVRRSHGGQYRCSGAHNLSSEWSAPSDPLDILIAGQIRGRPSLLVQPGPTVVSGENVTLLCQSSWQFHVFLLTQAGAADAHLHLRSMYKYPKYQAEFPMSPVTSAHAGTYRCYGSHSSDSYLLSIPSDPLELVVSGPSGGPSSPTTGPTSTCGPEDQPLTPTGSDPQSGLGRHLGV
Chain of human ILT2 chimeric reporter receptor (ILT2 extracellular domain fused to PILRbeta transmembrane/intracellular domain) (human), Q8NHL6 (Q8NHL6 24-461 limits assumed, change not shown): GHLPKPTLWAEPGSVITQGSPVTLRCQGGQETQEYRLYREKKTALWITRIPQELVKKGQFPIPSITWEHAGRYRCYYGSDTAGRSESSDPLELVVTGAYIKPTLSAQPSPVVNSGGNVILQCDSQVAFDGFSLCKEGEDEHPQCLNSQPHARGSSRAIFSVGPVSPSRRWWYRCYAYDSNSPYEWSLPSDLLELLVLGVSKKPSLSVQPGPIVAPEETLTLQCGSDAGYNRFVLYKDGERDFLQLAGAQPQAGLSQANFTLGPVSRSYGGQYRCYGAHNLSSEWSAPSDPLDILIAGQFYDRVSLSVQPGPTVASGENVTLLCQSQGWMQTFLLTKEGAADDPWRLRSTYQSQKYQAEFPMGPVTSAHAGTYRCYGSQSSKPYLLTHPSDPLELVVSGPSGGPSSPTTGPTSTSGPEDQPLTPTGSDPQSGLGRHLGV

B1: anti-ILT4 antibody 48A5 (antibody, V domains shown)
VH: QIQLVQSGPELKKPGETVKISCKASGYTFTNYGMNWVKQAPGKGLKWMGWINTYIGEPIYADDFKGRFAFSLETSASTAYLQINNLKNEDMATYFCARRSDYDGYAMDYWGQGTSVTVSS
VL: DIVMSQSPSSLAVSVGERVTMSCKSSQSLLYSGNQKNYLAWYQQKPGQSPKLLIYWASTRESGVPDRFTGSGSGTDFTLTISSVKAEDLAVYYCQQHDSYPTFGGGSRLEIK
B1 registered an IC50 (read off the curve), %GFP+ human ILT4 reporter cells co-cultured with Raji cells in [1] of 20 pM. This molecule showed an IC50 (read off the curve), %GFP+ human ILT4 reporter cells co-cultured with 721.221-HLA-G cells in assay [2] of 20 pM. In assay [3], this molecule had a Kd of 2300 pM, a koff of 0.0026 s⁻¹ and a kon of 1.1e+06 M⁻¹ s⁻¹.

B2: anti-ILT4 antibody 47C8 (antibody, V domains shown)
VH: EVQLQQSGPDLVKPGASVKISCKASGYSFTGYYMHWVKQSHGKSLEWIGRVYPNNGDTSYNQKFKVKAILTVDKSSSTAYMELRSLTSEDSAVYYCARGATVVESLFAYWGQGTLVTVSA
VL: DIVLTQSPASLAVSLGQRATISCRASESVDNYGNNFLHWYQQKPGQPPKLLIYRTSNLESGIPARFSGSGSRTDFTLTINPVEADDVATYYCQQSNEDPYTFGGGTKLEIK
In assay [3], B2 yielded a Kd of 2300 pM, a koff of 0.0014 s⁻¹ and an association rate constant (kon) of 590000 M⁻¹ s⁻¹.

B3: anti-ILT2 antibody 27F9 (antibody, V domains shown)
VH: QVQLKESGPGLVAPSQSLSITCTVSGFSLTNYGVSWVRQPPGKGLEWLGIIWGDGSTNYHSALISRLSISKDNSKSQVFLKLNSLQADDTATYYCAKPNWDTYAMDFWGQGTSVTVSS
VL: DIQMTQTTSSLSASLGDRVTISCRASQDISNFLNWYQQKPDGTVKLLIYCTSKLHSGVPSRFSGSGSETDYSLTISNLEQEDIATYFCQQGNTLPPTFGGGTKLEII
Take B3: the IC50 (read off the curve), %GFP+ human ILT2 reporter cells co-cultured with Raji cells in assay [4] came to 40 pM.

B4: humanized anti-ILT2/ILT4 antibody Hz73D1.v1 (antibody, human IgG1, kappa, N297G, V domains shown)
VH: QVQLVQSGAEVKKPGASVKVSCKASGYTFTDYYINWVRQAPGQGLEWMGNVNPNDGGTTYNQKFKGRVTMTTDTSTSTAYMELRSLRSDDTAVYYCARREIYFYGTIYYYAMDYWGQGTLVTVSS
VL: DIQLTQSPSFLSASVGDRVTITCRASESVDYYGNSFMYWYQQKPGKAPKLLIYFASNLESGVPSRFSGSGSGTEFTLTISSLQPEDFATYYCQQNNEDPWTFGGGTKVEIKR
As to B4, the 50% effective concentration (EC50) in [5] was 8800 pM. In assay [6], this molecule had a Kd of 19100 pM, a koff of 0.06 s⁻¹ and an association rate constant (kon) of 3.4e+06 M⁻¹ s⁻¹.

B5: anti-ILT2/ILT4 antibody 47H6 (antibody, V domains shown)
VH: EVQLQQSGPELVKPGASVKISCKASGYTFTDYYMNWVKQSHGKSLEWIGDFNPNNGGTTYNQKFEGKATLTVDKSSNTAYMDLRSLTSEDSAVYYCARGRFYYGSLYSFDYWGQGTTLTVSS
VL: DIQMTQSPASLSASVGETVTITCRASGNIHNYLAWYQQKQGKSPHLLVYNAKTLADGVPSRFSGSGSGTQYSLKINNLQPEDFGSYYCQHFWTSITFGAGTKLDLK
In assay [7], B5 registered a Kd below 100 pM, a koff of 1e-05 s⁻¹ and a kon of 47000 M⁻¹ s⁻¹.

B6: anti-ILT2/ILT4 antibody 73D1 (antibody, V domains shown)
VH: AVQLQQSGPELVKPGASVKISCKASGYTFTDYYINWVKQSHGKSLQWIGNVNPNDGGTTYNQKFKGKATLTVDKSSSTAYMELRSLTSEDSAVYYCARREIYFYGTIYYYAMDYWGQGTSVTVSS
VL: DIVLTQSPASLAVSLGQRATISCRASESVDYYGNSFMYWYQQKPGRPPNLLIYFASNLESGVPARFSGSGSRTDFTLTIDPVEADDAATYYCQQNNEDPWTFGGGTKLEIK
In turn, B6 yielded an IC50 (read off the curve), %GFP+ human ILT4 reporter cells co-cultured with Raji cells in [1] of 70 pM. The molecule further registered an IC50 (read off the curve), %GFP+ human ILT2 reporter cells co-cultured with Raji cells in assay [4] of 200 pM. In [8], this molecule came in with an EC50 (read off the curve) of 4000 pM. The molecule also returned an IC50 (read off the curve), %GFP+ cyno ILT2 reporter cells co-cultured with Raji cells in [9] of 40 pM. In assay [3], the Kd worked out at 1200 pM, the off-rate (koff) was 6e-05 s⁻¹ and the kon was found to be 50000 M⁻¹ s⁻¹. In [10], the EC50 (read off the curve) is 5000 pM.

B7: anti-ILT2/ILT4 antibody 73C4 (antibody, V domains shown)
VH: AVQLQQSGPELVKPGASVKISCKASGYTFTDYYMNWVKQSHGKSLEWIGNVNPNNGGTSYNQKFKGKATLTVDKSSSTAYMELRSLTSEDSAVYYCARREIYFYGTIYYYAMDYWGQGTSVTVSS
VL: DIVLTQSPASLAVSLGQRATISCRASESVDYYGNSFMYWYQQKPGRPPNLLIYFASNLESGVPARFSGSGSRTDFTLTIDPVEADDAATYYCQQNNEDPWTFGGGTKLEIK
In assay [7], B7 displayed a Kd below 100 pM, a koff of 1e-05 s⁻¹ and a kon of 31000 M⁻¹ s⁻¹.

B8: anti-ILT2/ILT4 antibody 64A12 (antibody, V domains shown)
VH: EVQLVESGGGLVQPKGSLKLSCAASGFTFNTYAMHWVRQAPGKGLEWVARIRSKSSNYATYYADSVKDRFTISRDDSQSMLYLQMNNLKTEDTAMYYCVRDGIYYYDTMYYYAMDYWGQGTSVTVSS
VL: NIVLTQSPASLAVSLGQRATISCRASESVDYYGNSFIYWYQQKPGQPPKLLIYFASNLESGVPARFSGSGSRTDFTLTIDPVEAADAASYYCQQNNEDPWTFGGGTKLEIK
On to B8, for which the kon in assay [11] turned out to be 20000 M⁻¹ s⁻¹. For the same molecule, in assay [7], the Kd was below 100 pM and the koff was 1e-05 s⁻¹.

B9: anti-ILT2/ILT4 antibody 51A1 (antibody, V domains shown)
VH: EVQLVESGGGLVQPKGSLKLSCAASGFTFNTYAMHWVRQAPGKGLEWVARIRSKSSNYATYYADSVKDRFTISRDDSQSMLYLQMNNLKTEDTAMYYCVRDGIYYYGTMYYYAMDYWGQGTSVTVSS
VL: NIVLTQSPASLAVSLGQRATISCRASESVDYYGNSFMYWYQQKPGQPPKLLIYFASNLESGVPARFSGSGSRTDFTLTIDPVEAADAASYYCQQNNEDPWTFGGGTKLEIK
Take B9: in assay [3], the dissociation constant Kd came out at 200 pM, the koff worked out at 2.1e-05 s⁻¹ and the kon was 100000 M⁻¹ s⁻¹.

Broadly, the Kd is the constant that tells how readily two partners part at equilibrium. The term koff denotes the rate constant with which the complex falls apart. Usually kon stands for a measure of how fast the partners come together. The EC50 is the midpoint of the concentration-response curve. For orientation: EC50 (read off the curve) means the concentration that produces a half-maximal response.
